In article PMC7058014:

Molecular target: T1, GST-ATML1(30-134) (Arabidopsis thaliana) (UniProt Q8RWU4)
T1 sequence: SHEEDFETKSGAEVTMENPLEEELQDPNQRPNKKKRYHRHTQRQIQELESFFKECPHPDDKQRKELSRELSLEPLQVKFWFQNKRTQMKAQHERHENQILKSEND
Experiment: EMSA
Conditions: 15 mM Tris pH 7.5, 50 mM NaCl, 0.1 mM DTT, 5% glycerol, 0.1 mM MgCl2, 50 ng/ul carrier DNA, room temperature 30 min; 6% gel in 0.5x TBE at 4 C

Row | Sequence | binding
1 | ATGTGAATGAAGCCAAGAATCAGTTAATACTAAAGCTCAAGTGTGCAATATACATCACAATACCTTTGTCCTTGTTTCAGGTCTACTTTTACATCATAGAACTTGCTCCTATAGATAATACAATGCATGGTATTGACGTAAGAACTCTTAGCTTTTCATATTAGTAGCTTATAATGTTCCTTAAATGCGACATTGATATTAAGCTACTACTCAATAACTCAATGGTAACGAATCATAAGTCTGAACTATTCGAAAACAGTAATCCTGAAAAGAAA (double strand) [MIR171A-F1] | binds
2 | CCTGATAATTTGATATCATCGGTTGTAAAAACGAATATGTAATGTTACATTACTAATGTATAAAGTATAAACAAATATTATTATCTTTTGAAAAAAGTTTTTCATAGAAACAATTCAAATTTAATAAACCAACCTCCTTTTTGGTATGGGGTTGTTGGTCTAATTTAATGCTTGTCTCTTGCTTGCCTCTCTTCTTCAACCATCTTCGTATTTATATCTTCTTCTTCACTATGCATACTCATAAACTTTGCTACTGGCCGCAT (double strand) [MIR171B-F4] | binds
3 | CCTCCTCAAGAAGGAAAGACAGAGGAGGAGACAAAGAAGTATAGGTTCACATTGCATAGCCAGTTTAGTTTTGAAGGATGGATATATGAAAAAAATATGAAGAGAGAGAAGAGAGAAGAAGAGGAGGATTAAAGAGGGTGAGGCCAGCTTTTGTGCTTTGGTAGTAGATGAGGTTTAAATGCTCCATACCTTCCATTTCCTTCTCTCTTACCCTAATTTAATTCTTCCTCTCCTTTATAACTCCCCACAGACATTCTCACT (double strand) [MIR171A-F3] | binds
4 | ATGTTGATTACCCATATACTTTGCTAGCGGCCGAAATGATCACTTTCATGATTTTTTTTTGCATAGGTTCATAAAACATATATTTACTTTTTTTTAAGGAAATATTAAATAAATGATAGGAACTTAACAAGAGAAGAAATAAATAGGGAGGGAGAATATTTGGAAAGTTGAGCCATATTAATTTCGAAATTCAAATGTATATTGGGAGTGGCACAACCCCACCAACATGCCTTGCTCTCTCTTACAAACCTCATAAATACTAAATTGAAAGCTCGTGGGA (double strand) [MIR171B-F3] | binds
5 | GGGTTCATAACTTGCTTGAGGTTTTGTAAAAAGCAGAGAAAGAGAGAGAGAGGGGCCTAGAAAGAAAGAAAGAAAAGCAGTAAGAGACTATTAAATGTTGCAGGCAGGTCCAGCCAGTGTCCCCTCTCTTCTGCGAGATTCCCTCAAAATTTATTACAAAGCATCTTCATCGATGTTCTTTTAATTCTTCCTCAAAATCTTTTCTCTTTTTTTGGTTATATATATTTGAATTTTGATTTATGAACCTCCTCAAGAAGGAAA (double strand) [MIR171A-F2] | binds
